Reference: US20160326232A1 (Janssen / Centocor, published 2016)
Where a chain is given by its changes, count along the chain named. One block for each binder: values may come before it.

What was measured:
[1] = biological target: T1, cynomolgus monkey PSMA extracellular domain with 6His and Avi tag (PSMW1), biotinylated (cynomolgus monkey, UniProt Q04609 44-750 (human entry), biotinylated ; Biotinylated, presumably on the Avi tag, which is not in the letters. Glycosylated (expressed in HEK cells). PSMA forms a homodimer; one subunit is given.); assay: hit of CIS-display panning and ELISA screen on biotinylated PSMA (same antigen as in panning; signal at least 10-fold above background); column Antigen species
T1 construct: Expressed in 293HEK-expi cells; buffer with ZnCl2 to stabilize PSMA dimerization; A cyno PSMA-Fc fusion was also used in some plate-based pannings; also called cyno PSMA; Macaca Fascicularis PSMA
T1 chain: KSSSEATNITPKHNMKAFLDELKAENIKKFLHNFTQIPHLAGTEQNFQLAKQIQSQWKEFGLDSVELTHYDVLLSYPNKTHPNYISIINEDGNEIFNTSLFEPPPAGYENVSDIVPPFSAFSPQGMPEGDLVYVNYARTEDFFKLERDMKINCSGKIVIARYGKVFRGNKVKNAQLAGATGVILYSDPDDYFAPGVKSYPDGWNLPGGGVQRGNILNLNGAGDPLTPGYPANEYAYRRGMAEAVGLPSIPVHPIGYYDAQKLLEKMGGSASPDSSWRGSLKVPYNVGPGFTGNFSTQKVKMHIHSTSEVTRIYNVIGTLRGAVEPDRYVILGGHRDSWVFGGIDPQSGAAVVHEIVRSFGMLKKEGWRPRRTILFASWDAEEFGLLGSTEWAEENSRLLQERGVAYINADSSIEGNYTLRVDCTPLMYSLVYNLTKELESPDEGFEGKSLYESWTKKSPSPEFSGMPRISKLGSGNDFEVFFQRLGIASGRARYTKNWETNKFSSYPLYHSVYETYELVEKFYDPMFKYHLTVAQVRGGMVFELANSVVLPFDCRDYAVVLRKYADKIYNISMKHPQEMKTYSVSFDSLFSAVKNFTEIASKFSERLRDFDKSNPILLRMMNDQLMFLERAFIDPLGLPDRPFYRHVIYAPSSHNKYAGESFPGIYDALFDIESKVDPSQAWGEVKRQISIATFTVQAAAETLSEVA
Description: (§1) Neutravidin-coated plates were blocked for 1 h in Starting Block T20 (Pierce) and then coated with biotinylated PSMA (using same antigen as in panning) or negative control for 1 h. Plates were rinsed with TBST and diluted lysate was applied to plates for 1 h. Following additional rinses, wells were treated with HRP-conjugated anti-Centyrin antibody (PAB25) for 1 h and then assayed with POD (Roche). Centyrins with signals at least 10-fold above background were selected for further analysis.

[2] = biological target: T2, chimpanzee PSMA extracellular domain with 6His and Avi tag (PSMW8), biotinylated (chimpanzee, UniProt Q04609 44-750 (human entry), biotinylated ; Biotinylated, presumably on the Avi tag, which is not in the letters. Glycosylated (expressed in HEK cells). PSMA forms a homodimer; one subunit is given.); assay: as above
T2 construct: Expressed in 293HEK-expi cells; buffer with ZnCl2 to stabilize PSMA dimerization; also called chimp PSMA; Pan troglodytes PSMA
T2 chain: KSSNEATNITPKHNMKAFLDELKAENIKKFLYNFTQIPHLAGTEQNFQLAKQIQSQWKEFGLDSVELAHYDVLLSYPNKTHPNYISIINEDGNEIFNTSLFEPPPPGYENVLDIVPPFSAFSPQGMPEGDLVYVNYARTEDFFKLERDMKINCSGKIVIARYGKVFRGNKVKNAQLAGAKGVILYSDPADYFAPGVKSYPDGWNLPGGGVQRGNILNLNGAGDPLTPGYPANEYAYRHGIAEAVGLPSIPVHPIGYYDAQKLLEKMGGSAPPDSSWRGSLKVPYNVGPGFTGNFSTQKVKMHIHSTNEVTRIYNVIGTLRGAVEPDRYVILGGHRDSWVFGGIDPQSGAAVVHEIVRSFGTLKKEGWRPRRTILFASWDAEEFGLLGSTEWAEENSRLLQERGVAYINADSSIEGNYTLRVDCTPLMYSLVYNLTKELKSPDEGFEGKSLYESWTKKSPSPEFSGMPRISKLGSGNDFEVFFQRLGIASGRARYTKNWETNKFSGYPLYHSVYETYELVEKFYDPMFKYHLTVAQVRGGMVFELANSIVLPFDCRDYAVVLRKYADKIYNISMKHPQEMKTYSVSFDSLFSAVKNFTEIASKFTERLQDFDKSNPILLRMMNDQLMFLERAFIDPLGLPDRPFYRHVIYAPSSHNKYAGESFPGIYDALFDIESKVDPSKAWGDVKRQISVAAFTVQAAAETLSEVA
Description: as §1

binding result [1]: binds
B1: P234CR9_H01 (designed binder)
chain: LPAPKNLVVSRVTEDSARLSWEWWVIPGDFDSFLIQYQESEKVGEAIVLTVPGSERSYDLTGLKPGTEYTVSIYGVVNSGQWNDTSNPLSAIFTT
notes: FN3 domain (Centyrin), unconjugated, as screened from E. coli lysate; not shown: C-terminal poly-histidine tag

binding result [2]: binds
B2: P229CR5P819_H11 (designed binder)
chain: LPAPKNLVVSRVTEDSARLSWDIDEQRDWFDSFLIQYQESEKVGEAIVLTVPGSERSYDLTGLKPGTEYTVSIYGVYHVYRSSNPLSAIFTT
notes: FN3 domain (Centyrin), unconjugated, as screened from E. coli lysate; also called P229CR9P819-H11; not shown: C-terminal poly-histidine tag

binding result [1]: binds
B3: P258AR6P1070_A05 (designed binder)
chain: LPAPKNLVVSRVTEDSARLSWTIDEQRDWFDSFLIQYQESEKVGEAIVLTVPGSERSYDLTGLKPGTEYTVSIYGVYHVYRSNPLSAIFTT
notes: as for B1

binding result [1]: binds
B4: P258AR6P1071_F04 (designed binder)
chain: B3 chain with T22V
notes: as for B1

binding result [1]: binds
B5: P258AR6P1071_D02 (designed binder)
chain: B3 chain with T22A, D31E
notes: as for B1

binding result [1]: binds
B6: P258AR6P1070_F09 (designed binder)
chain: B3 chain with D31E
notes: as for B1

binding result [1]: binds
B7: P258AR6P1071_G03 (designed binder)
chain: B3 chain with T22D
notes: as for B1

binding result [2]: binds
B8: His-tagged P233FR9-H10 centyrin (designed binder)
chain: LPAPKNLVVSRVTEDSARLSWTAPDAAFDSFAIGYWEWDDDGEAIVLTVPGSERSYDLTGLKPGTEYPVYIAGVKGGQWSFPLSAIFTT
notes: FN3 domain (Centyrin), unconjugated; used in the screen and in the crystal structure with cynoPSMA; also called H10 FN3 domain; P233FR9_10; not shown: C-terminal His-tag

binding result [2]: binds
B9: P233FR9P1001_H3-1 (designed binder)
chain: B8 chain with A32P, P68H
notes: as for B1

binding result [2]: binds
B10: P233FR9P1001_B5-5 (designed binder)
chain: B8 chain with A32T
notes: as for B1

binding result [2]: binds
B11: P233FR9P1001_D9 (designed binder)
chain: B8 chain with A32P, P68W
notes: as for B1

binding result [1]: binds
B12: P234CR9_A7 (designed binder)
chain: LPAPKNLVVSRVTEDSARLSWGEQFTIFDSFLIQYQESEKVGEAIVLTVPGSERSYDLTGLKPGTEYTVSIYGASGYEWFHAFGSSNPLSAIFTT
notes: FN3 domain (Centyrin), unconjugated, as screened from E. coli lysate; also called P234CR9_A07; not shown: C-terminal poly-histidine tag
